Measurements as given in patent US20130095098A1 (UCB, published 2013).

B1: 948.g1 (948 humanised graft; gL1 light chain, g1 heavy chain, human gamma-4 S241P / human kappa) (antibody, human IgG4 S228P, kappa, V domains shown)
VH: EVQLQESGPGLVKPSQTLSLTCTVTGYSITSDYAWNWIRQPPGKKLEWMGYINYSGSTSYNPSLKSRVTISRDTSKNQFSLKLSSVTAADTAVYYCARWIGSSAWYFDVWGQGTLVTVSS
VL: DVLMTQTPLSLSVTPGQPASISCRSGQNIVHSNGNTYLEWYLQKPGQSPKLLIYKVSNRFFGVPDRISGSGSGTDFTLKISRVEAEDVGVYFCFQGSHVPFTFGQGTKLEIKR
B2: antibody CA051-00948 (948 murine parental; cloned recombinant antibody derived from hybridoma Clone 10) (antibody, IgG1, V domains shown)
VH: DVQLQESGPGLVKPSQSLSLTCTVTGYSITSDYAWNWIRQFPGNKLEWMGYINYSGSTSYNPSLKSRISITRDTSKNQFFLQLNSVTTEDTATYYCARWIGSSAWYFDVWGAGTTVTVS
VL: DVLMTQTPLSLPVSLGDQASISCRSGQNIVHSNGNTYLEWYLQKPGQSPKLLIYKVSNRFFGVPDRISGSGSGTDFTLKISRVEAEDLGVYFCFQGSHVPFTFGSGTKLEIK
notes: also called Ab948

What was measured:
[1] = target: T1, human PD-1 (Programmed Death 1), full-length, expressed on transiently transfected HEK293 cells (human, UniProt Q15116 25-288); test: flow cytometry on HEK293 cells transiently transfected with human PD-1; FITC mouse anti-human IgG secondary
T1 construct: whole, on cells; also called CD279; PDCD1
Description: (§1) HEK293 cells were transiently transfected by culturing at 5×10⁶/well with 5 μg human PD-1 DNA and 293 fectin (Invitrogen) overnight in 6 well plates. […] Cells were washed with PBS and incubated with an appropriate secondary antibody, either FITC Mouse anti Human IgG (05-4211 Zymed, 1:20 dilution) or rat anti Mouse IgG (04-6111 Zymed, 1:20 dilution) for 1 hr at 4° C. Flow cytometry analysis was performed on a FACSCalibur (Becton Dickinson).

[2] = target: T1, human PD-1 (Programmed Death 1), …; test: flow cytometry on HEK293 cells transiently transfected with human PD-1; rat anti-mouse IgG secondary
Description: as §1

T1 sequence (Q15116 25-288): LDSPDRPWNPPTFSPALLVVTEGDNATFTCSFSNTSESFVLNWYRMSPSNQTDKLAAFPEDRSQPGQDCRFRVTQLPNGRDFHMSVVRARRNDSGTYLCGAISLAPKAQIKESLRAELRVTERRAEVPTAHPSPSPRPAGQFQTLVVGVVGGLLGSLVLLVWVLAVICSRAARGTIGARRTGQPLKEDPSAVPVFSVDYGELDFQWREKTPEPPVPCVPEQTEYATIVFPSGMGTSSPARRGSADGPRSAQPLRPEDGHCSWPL

| Binder | binding result [1] | binding result [2] |
| --- | --- | --- |
| B1 | binds | – |
| B2 | – | binds |
